# Assay results published in the supplement of paper PMC9170038.
# System: K4 kissing-loop RNA reporter
# Experiment: apparent KD of K4 kissing-loop reporter; higher = weaker reporter binding
# Details: Eterna round: R107
# Procedure: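 RNA-MaP round R107: designed RNA switches with theophylline, tryptophan, arginine or FMN aptamers are transcribed on-chip within common flanks. They are titrated with a labelled K4 kissing-loop RNA reporter in RNA-MaP buffer (100 mM Tris pH 7.5, 80 mM KCl, 4 mM MgCl2), without ligand or with the indicated ligand. Median apparent KD per design.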
# [1] = input ligand: theophylline 20 uM
# [2] = input ligand: tryptophan 2.4 mM
# 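Note: bound reporter read as fluorescence of individual clusters on recovered sequencing chips by microscopy, with normalized cluster intensities fitted with a binding model.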
Sequence,apparent KD of K4 kissing-loop reporter (input ligand: FMN 200 uM) [nM],apparent KD of K4 kissing-loop reporter (input ligand: arginine 13.2 mM) [nM],apparent KD of K4 kissing-loop reporter (input ligand: none) [nM],apparent KD of K4 kissing-loop reporter [1] [nM],apparent KD of K4 kissing-loop reporter [2] [nM]
CCGACUGCAGGAAGGAGCGGCGGUUGGAGUGAUGUUCCAGGUAGUGAUGUUACCAAGAUCCGCCAGGUAGGUCGCCUGUUGCUCA [Same State Arginie B GF 12],156,106,115,148,125
CUCGAGUGAUGUUCCUUUAUUUAUACAGAUACCAGUGAAUUUUAACACCCUUGGCAGCUGGUUGUAUCUUUGUUUUUUACACAUG [JR_Nu_ExcTheophyA_Sub025],204,128,205,270,155
UGACAUUGCUCAGAUACCAGACUUGAGGAACACCCAAGUGCCAAACGUACAAUAAUAAAAGUCCCUUGGCAGCUGAGCAAUGUCU [TheoBX 14],111,53.6,82.1,62.8,59.8
AAGGGCUAGGCGGCCGCCACUGGUCGUGUACACAUACGAGCCAGUGAUGUUGGUAUUGUGUGCGGCAGGACCGGGCCUAGCCGAA [Exclusion - Tryptophan B (Freestyle 25)],410,303,304,468,387
UGACAUUGCUCAGAUACCAGACAAGAGGAUCACCCUUGUGCCAAACGUACAAUAAUAAUUGUCCCUUGGCAGCUGAGCAAUGUCU [TheoBX 14],73.2,25.4,16.3,80.7,51.6
AGCGAGAUACUUGUCUAGUAUACUACAGAUACCAGACAAGUACUAGUCCCUUGGCAGCUGUAGAUCGAGUGAUGUUCGAGUCGCU [Theo A SS t1],527,415,516,430,389
GUGUAAGUGAUGUUUGCACACACGUCGGAUACCAGAGACUUUAGCCUCCCUUGGCAGCCGCCGGCCAUAAGAGCAAGUCGAUUUA [theeternabot_sameState_KL_Theo_A_20],197,186,210,194,176
AUACGUUUAAGUGAUACCAGACAUGUGAGUGAUGUUUACAAAUAAAUUAAAUUUUUAGCUGUCCCUUGGCAGCACAGUUUAUUUA [JR_ExcTheophyB_Sub002],516,517,594,610,430
UUUUUCGCGUUUGAUACCAGCAGAGUUGUUCGUGUCUGGAGCGUGAGUGAUGUUCAUGUCUGCCCUUGGCAGCAAACGGGAGAAG [KL-XTheo-B14],137,113,123,97.1,134
UGUCUGAUGGAAACAUCGGACUUUACUGAUACCAGUAUCGAUAGAUACCCUUGGCAGCAGAAUCAGUAAUAACGAGUGAUGUUCG [Ex Theophylline A K4 3],347,280,386,317,310
GUUACGCAUGGAAGGAGCGCGAUUAAAUUUAGUGAGUGAUGUUCACAAAAUAAAACUAAAACGCAGGUAGGUCGCCAUGUGUAAC [Ex Arginine B K4 2],171,196,188,198,159
UGUCAUUGGUCGGCCGCCACUAGGACCGGGUUUUACCUAGUGAUGUUAGUAUGAACGGCCGCCACUAGGACCGGGACCGAUGACU [KL-SSTryp-B25 #DoubleAptamer],343,195,322,442,113
ACGAAGGAUGGAAGGAGCGCUCGUCAGUCCUGCGAGUGAUGUUCGUGGGUAAAUAUUCGCGAGCAGGUAGGUCGCCAUCUUGAGC [Soregeor],144,115,144,134,129
ACGUAUAUCAGAGGAUAUCGUAUUAAUAUUUUAUCUAUAUAGUUUUGCAGUGAUGUUGCAAUUAUUCGAGAAGGCUGAUUUACGA [JR_SSFMNB_Sub024],86.1,95.6,75.3,89.2,69.2
UGAUACCAGACUGAUACCAGCGAGUGAUGUUCGUUGAAAUCAGGGUCAAAGACCCUGUCUCGCCCUUGGCAGCAGUCUGGUAUCU [TheoBX 22 #SwitchBubble #StaticStem],690,704,829,320,785
CCGCCAUCGUCAGAUACCAGGCUGAUGGCGGUAACCGCCAAGCGAGUGAUGUUCGCAUCAGUCCCUUGGCAGCUGACGAAGACUG [#16 K4 Theophylline B Same State],176,86.9,190,283,133
GCAGUGAUGUUGCACGAGUAGGGUAGAGUGCGAGGACCGGUACGGCCGCCACUCGUAUGGAACUCGCUAAUUUAUGGAAUGGUGA [whbob_SS_tryp_A],791,828,1020,920,575
CCAUCGCUAUUCGAUACCAGCUCCUUAGUGAUGUUAAGGUUUUACCCACUGUAGGUGGGAAGCCCUUGGCAGCGAAUAGUGAUGG [Theophylline B K4 28],982,872,1150,538,1030
CCAGUGAUAAACGAUACCAGAAAUACCUUAUUUGGCCGGCGGAGUGAUGUUCCUAAUACUUUCCCUUGGCAGCGUCGAAUGCUAG [theeternabot_sameState_KL_Theo_B_16],43.8,61.1,46,99,42.3
CCUAUCUCAUACGAUACCAGUCCGAGUGAUGUUCGAACAGGUUUUAGUUUGCCAUAUAAUGACCCUUGGCAGCGUAUGGGAUAGG [Ex Theophylline B K4 13],167,123,163,130,137
GGAUAGGACAAAGGAUAUGGGCUAGGCAAGAAUAACUUGUCUAGCAAAUCCAUGAGGAGUGAUGUUCCAGAAGGUUGUCCUAUCG [FmnBX 1 A11+U75],624,116,122,127,107

Sequence,apparent KD of K4 kissing-loop reporter (input ligand: FMN 200 uM) [nM],apparent KD of K4 kissing-loop reporter (input ligand: arginine 13.2 mM) [nM],apparent KD of K4 kissing-loop reporter (input ligand: none) [nM],apparent KD of K4 kissing-loop reporter [1] [nM],apparent KD of K4 kissing-loop reporter [2] [nM]
AGAAACUUGUAUGUCGAGUGUGCGCGCGAUACCAGCCAAAUGGAUGGCCCUUGGCAGCGCUGCGAGUGAUGUUCGCCCGCUUGAC [#18 K4 Theophylline A Exclusion],210,244,203,192,174
AUGCGCGCGGCGGCCGCCACUCGCAUGAGAGUGAUGUUCUCACCGUGACCGUAAGGUCGCGGUGUGAGGACCGGGCCGGGCUGCG [#2 Same State - Tryptophan B Attempt #23 (HarryS)],28.4,72.7,245,281,118
ACGACGCAUAGUGAUACCAGCACAAUAUGAGUGAUGUUCAACAUAUAAAUGUAAUAAUUAUGCCCUUGGCAGCACUAUGCGUCAG [KL-SSTheoB1],658,660,793,707,591
AAUUUAUUAACUGAUACCAGACUUUAAUUUAUAUAUAUGUCUAGUGAUGUUAAACAUAUUGUCCCUUGGCAGCAGUAUUUAUUAA [JR_SSTheophyB_Sub020],761,399,755,768,536
GUACCUUGGAAACAAGGACAGCUAACCGAAGGAGCGCGUGAAAACGCAGGUAGGUCGCGGUAGCGGAGUGAUGUUCCGCGAGAGC [Same State Arginine A GF 19],114,85.8,88.8,103,108
AUCACAGUGAUGUUGUGAUAUGGUACAGAUACCAGACUAGUGCUAGUCCCUUGGCAGCUGUACUCAGCAGCACCACUAGCACUCG [Theo A Ex t6b],147,131,145,153,128
UGACUGGACUGAAGGAGCGCUGAACUCCUAGUGAUGUUAGGACAACGAGACAAAGUCUCGAAGCAGGUAGGUCGCAGUCUAGUCU,154,129,154,152,184
GCCCGAAAGGGCCGAAGUGUUUGCGGCGAUCGAGGACCGGUACGGCCGCCACUCGUCGAGGCGUUCAGUGAUGUUGAAAGCAUGA,250,257,215,266,480
UGUACCGAAUCAGGAUAUGUCGUCGAAAGACGAAAUGGAGUGAUGUUCCUUAAACUGCGAAAGCAGACAGAAGGGAUUUGGUACU [FmnBS 29 A9+U77],161,386,470,403,385
UGAUACCAGACUGAUACCAGCUAGUGAUGUUAGCUGAAAUCAGGGUCAAAGACCCUGUCUGGCCCUUGGCAGCAGUCUGGUAUCU [TheoBX 18 #SwitchBubble #StaticStem],83.2,72.3,76.2,73.2,71.2
UAUAUAUGAUGUGAUACCAGUGAAGAGCCAGUGAUGUUGGUAGAACUGGUAUAUAAAUAACACCCUUGGCAGCACAAUCACGUAU [whbob_Ex_Theo_B_sa97],160,152,170,212,164
AAGUAGCUCUCGGCCGCCACUCCUCAGUGAUGUUGAGAUAUUAACUGCCAAUUGGCGUAUUUAAAGAGGACCGGGAGAGCUACAA [AK2 SS Tryptophan B],389,389,476,397,129
UCCUGCAAUCGACCACGAAAGUGGAUCGAUACCAGAGUCGAAAGACUCCCUUGGCAGCGAGUGAUGUUCGAAGCAGGUAAAUAAA [#SwitchBubble 22 #K4Late],520,383,453,464,383
UUUGGAGUGGGAGGAUAUCCUAAUAUGGGUGAUGUUAGCGAUGUUGAAGGUGUAGUGAUGUUAUGCGGAGAAGGCCCAGUGUAGA [BDazzled - #18 - Exc. FMN B],166,146,245,273,221
AUGUACACGAUAGUGUACUCCUAGUGAUGUUAGGAUAUGCAGAUAUGCAGAAGGAACAAGUCAUCUGACAAUAGUCGGAUGACAA [FmnAX 9 #OpenEnded #K4Early],388,92.5,119,125,94.1
AAGCCAAAGAUUGCUGCGGGUUCCAGAGAUACCAGCCGUAUUGAAGGCCCUUGGCAGCUCGAGUGAUGUUCGAGCCGUCUCUGGC [Lexerati],127,117,117,122,105
GCGCGGGAGUGAUGUUCCAAGUGGUGUUAACGAGGACCGGUACGGCCGCCACUCGUUACGGCCGGGCCGUAGGAUACACUGGCGC [Same State - Tryptophan A (Freestyle 16)],168,242,274,471,415
UGACUGGAUGGAAGGAGCGCUAAACUCCUAGUGAUGUUAGGGACACGAGACAAAGUCUUGAGGCAGGUAGGUCGCCAUCUAGUCU [FiskerMod 8 - Jieux - Same State - Arginine B],379,211,251,250,241
GGACGACAGUCGGCCGCCACUCACAGCAGCCAGUGAUGUUGGAUUGUAGCGGAGUGAUGUUUCGCGAGGACCGGGACUGCAGUCC [Same State Tryptophan B GF 14],190,171,227,226,199
AGCGACUCUUCGGAGUCGCGGCUAAGGGAUACCAGUGAUGUUGGUCACCCUUGGCAGCCCAGAAGCCAAGCCACCAAAGGUGGCA [Omei KL Theo A Exc A v5],104,98.6,111,114,113
GACUGGUUAACAGAUACCAGCCACAAGCGUUGAGGCGGCGGUAAAGUGAUGUUUUAUAAAGGCCCUUGGCAGCUGACUAGUUCGU [theeternabot_exclusion_KL_Theo_B_28],371,387,383,381,324
